Where a chain is given by its changes, count along the chain named. A value given as a limit tells only on which side of the number the result lay.

Assay [1] deals with T1, human ApoC3 (huApoC3), native protein purified from human serum (human, UniProt P02656 21-99). In words: cell-based or functional assay.
Assay [2] has as its target cynomologus monkey ApoC3 (cynoApoC3), native protein (Macaca fascicularis (cynomologus monkey), UniProt P18659 21-99). In words: SPR (Biacore 3000), antibody IgG1 amine-coupled to a CM5 chip, native ApoC3 injected, HBS-EP pH 7.4. On the procedure: The SPR experiments were carried out using a Biacore 3000 instrument (GE Healthcare). Flow cells of CM5 sensor chips were coupled with the generated IgG formatted antibodies of 14C7, 5A7, 5E5 and 6A6 (˜2000 RU) using the amine coupling chemistry. The coupling was performed using the adaptive immobilization Biacore protocol aiming 2000 RU as coating density, using 10 μg/ml antibody solutions in 10 mM sodium acetate buffer at pH 5.0. For all experiments the HBS-EP buffer at pH 7.4 was used as running and dilution buffer. 60 μl of human native ApoC3 or cynomologus monkey native ApoC3 protein preparations in the concentration range of 10 to 200 μg/ml were injected over all flow channels, followed by an off-rate wash at pH7.4 for 5 min. All injections were performed at a constant flow rate of 30 μl/min at 25° C. After the dissociation, the flow cell surfaces were regenerated by injecting 10 μl of 10 mM NaOH/1 M NaCl and 10 μl of 10 mM glycine at pH1.5. The resulting sensorgrams after blank channel subtraction were used to confirm cross-species reactivity and to evaluate affinity.
(In SPR one partner is held on a chip, and binding of the other changes the refractive index at the surface.)

For assay [3], the target named is T1, human ApoC3 (huApoC3), native protein …. In words: SPR Biacore, huApoC3 on chip, IgG1 as analyte.
For assay [4] the target is unchanged. In words: SPR Biacore, huApoC3 on chip, scFv-Fc as analyte. The method, then:
This example describes characterization of anti-ApoC3 antibodies regarding their affinity to ApoC3 under neutral conditions using an SPR-based assay using a Biacore 3000 instrument (Biacore AB). Native huApoC3 protein was immobilized on a CM5 chip. The immobilization was performed in accordance with the method provided by Biacore using the NHS/EDC kit (Biacore AB): after activation of the chip, a solution of 60 μg/ml of human ApoC3 in 10 mM acetate buffer with pH of 4.5 was prepared and injected until the surface density reached approximately 1000 RU. Capturing of the human ApoC3 on the streptavidin coated chip (SA) was performed at pH 7.4 in accordance with a method provided by Biacore via injection of 20 μl 10 μg/ml biotinylated human ApoC3 thereby reaching the surface density of approximately 500 RU. […] After the dissociation, the flow cell surfaces were regenerated by injecting 10 μl of 10 mM […]/1 M NaCl and 10 μl of 10 mM glycine at pH1.5. The resulting sensorgrams were analyzed using the BIAevaluation 4.1 software using Langmuir 1:1 binding model to derive binding kinetics. Data was zero adjusted and the reference cell sensorgrams were subtracted.
A number of scFv-Fc antibodies were examined in this assay. The association rate (ka), dissociation rate (kd), analyte binding capacity (Rmax), equilibrium association constant (KA) and equilibrium dissociation constant (KD) of these antibodies are shown in Table 5.

T1 sequence (P02656 21-99): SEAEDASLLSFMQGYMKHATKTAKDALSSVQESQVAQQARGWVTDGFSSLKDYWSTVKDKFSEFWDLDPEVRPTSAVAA
Chain of cynomologus monkey ApoC3 (cynoApoC3), native protein (P18659 21-99 limits assumed): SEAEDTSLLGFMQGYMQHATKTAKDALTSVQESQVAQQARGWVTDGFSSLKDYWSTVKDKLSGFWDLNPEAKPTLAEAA

B1: 14C7 IgG1 (antibody, V domains shown)
VH: QVQVQESGPGLVKPSQTLSLTCTVSGGSITTNSYYWSWIRQPPGKGLEWMGAIDYSGDTYYSPSLKSRTSISRDTSKNQFTLQLTSVTPEDTAVYYCVSRIPTGEYWGQGTQVTVSS
VL: QTVVTQEPSLSVSPGGTVTLTCGLNSGSVTSSNYPDWYQQTPGQAPRLLIYNTNSRHSGVPSRFSGSISGNKAALTITGAQPEDEADYYCALYMGSDSVVFGGGTHLTVL
notes: IgG1 format
B1: the “EC50, attenuation of ApoC3-mediated LPL inhibition (NEFA production)” value in assay [1] was around 2000 nM. In assay [2], the binding result was “binds”. In assay [3], the Ka turned out to be 1.46e+09 M⁻¹, the Kd worked out at 0.684 nM, the koff amounted to 5.61e-05 s⁻¹ and the kon came out at 82000 M⁻¹ s⁻¹.

B2: 8F4 scFv-Fc (Fc fusion)
VH: QLQLVESGGGLVQPGGSLRLSCAASGFAFSSYSMYWVRQAPGKGLERVAAIKTDGGSTNYADSVKGRFTVSRDNAKNTLYLQMNSLKSEDTAVYYCVIQGYGTWGQGTQVTVSS
VL: DLVLTQIPGSLSVVPGESASISCKASQSLVHSDGKTYLYWLLQKPGQSPQRLIYQVSNRGSGVPDRFTGSGSGTDFTLKISGVEAEDAGVYYCAQATYYGHSFGSGTRLEIK
notes: scFv-Fc format
As to B2, the “attenuation of the ability of ApoC3 to inhibit VLDL uptake by HepG2 cells” value in assay [1] was around 75%. Moreover, in assay [4], the Ka is 1.72e+09 M⁻¹, the Kd was 0.581 nM, the koff was 9.44e-05 s⁻¹ and the kon turned out to be 163000 M⁻¹ s⁻¹.

B3: 8H4 scFv-Fc (Fc fusion)
VH: ELQLVESGGGLVQPGRSLRLSCAASGFTFSSYSMRWVRQTPGKGLEWVTSINSDGGSTKYSDSVKGRFTISRDNAKNTLYLQMNNVKPEDTAIYYCAIQGYTDWGQGTQVTVSS
VL: B2 VL with L2V, I7T, A25V, G60D, E84K, A96G, Y99N, G100P, H101Y, S102T
notes: scFv-Fc format
Consider B3, for which the “attenuation of the ability of ApoC3 to inhibit VLDL uptake by HepG2 cells” value in assay [1] was around 70%. Also, in assay [4], the Ka is 2.52e+09 M⁻¹; the affinity, expressed as Kd, was 0.397 nM; the koff came to 7.44e-05 s⁻¹; the kon was 187000 M⁻¹ s⁻¹.

B4: 5A11 scFv-Fc (Fc fusion)
VH: QVQVQESGPGLVKPSQTLSLTCTVSGVSITTRYYAWSWIRQPPGKGLEWMGVIAYDGSTYYSPSLKSRTSISRDTSKNQFSLQLTSVTPEDTAVYYCARVRLIEAPYEYDYWGQGTQVTVSS
VL: QAVVTQEPSLSVSPGGTVTLTCGLSSGSVTTRSYPGWFQQTPGQAPRSLIHSTSSRHSGIPTRFSGSISGNKAALTITGAQPEDEADYYCALDIGSYIVFGGGTHLTVL
notes: scFv-Fc format
For B4, the “attenuation of the ability of ApoC3 to inhibit VLDL uptake by HepG2 cells” value in assay [1] is around 55%. In assay [4], this molecule had a Ka of 2.15e+09 M⁻¹, a Kd of 0.465 nM, a koff of 0.000668 s⁻¹ and a kon of 1.44e+06 M⁻¹ s⁻¹.

B5: 5A4 scFv-Fc (Fc fusion)
VH: QLQLVESGGGLVQPGGSLRLSCVASGFAFSHYTMYWVRQAPVRGLERVSAISGGGDRTIYTDSVKGRFTISRDNAANALYLQMNSLQPEDTAVYYCVAQGYEYWGQGTRVTVSS
VL: ATMLTQSPGSLSVVPGESASISCKAIQSLVHTDGKTYLYWFLQKPGQSPQRLIYQVSNRGSGVPDRFTGSGSGTDFTLKISGVKAEDAGVYYCAQGTYSSKTFGQGTKLEIK
notes: scFv-Fc format
Turning to B5, in assay [1], the “attenuation of the ability of ApoC3 to inhibit VLDL uptake by HepG2 cells” value is around 100%. Also, in assay [4], the Ka was 3.02e+09 M⁻¹, binding was put at a Kd of 0.331 nM, the koff came out at 0.000351 s⁻¹ and the kon was found to be 1.06e+06 M⁻¹ s⁻¹.

B6: 10B6 scFv-Fc (Fc fusion)
VH: EVQLVESGGGLVQPGGSLRLSCAASGFTFSSYAMRWVRQAPGKGLEWISSINIDGGSTRYTDSVQGRFTVSRDNAKNTLYLQMNNLKPEDTGIYYCTIQGYIYWGQGTQVTVSS
VL: ATMLTQSPGSLSIVPGESASISCKASQSLVHSNGVIYFYWLLQKPGQSPQRLIYQVSNRDSGVPDRFTGSGSGTDFTLKISGVKAEDAGVYYCAQGTYYPHSFGSGTRLQIK
notes: scFv-Fc format
For the molecule B6, the “attenuation of the ability of ApoC3 to inhibit VLDL uptake by HepG2 cells” value in assay [1] is around 70%. Moreover, in assay [4], the Ka stood at 2.58e+09 M⁻¹, the Kd was determined as 0.388 nM, the koff was 6.64e-05 s⁻¹ and the kon is 171000 M⁻¹ s⁻¹.

B7: 6A6 IgG1 (antibody, V domains shown)
VH: EVQLVESGGGLVQPGGSLRLSCAASGFTFSSYAGRWVRQVPGKGLEWVSSINAGGGSTSYADSVKGRFTISRDNAKNTLYLQMNSLKPEDTAKYYCTQNSYRYWGQGTRVAVSS
VL: DVVLTQTPGSLSVVPGESASISCKASQSLIHTDGKTYLYWLLQKPGQRPQLLIYQVSSHESGVPDRFTGSGSGTDFTLKISGVKAEDAGVYYCAQATYNPRTFGQGTKLEIK
notes: IgG1 format
On to B7, for which the “EC50, attenuation of ApoC3-mediated LPL inhibition (NEFA production)” value in assay [1] is above 5000 nM. Also, the binding result in assay [2] is “binds”.

B8: 6A6 scFv-Fc (Fc fusion)
VH: B7 VH
VL: B7 VL
notes: scFv-Fc format
In the case of B8, in assay [1], the “attenuation of the ability of ApoC3 to inhibit VLDL uptake by HepG2 cells” value is around 75%. In assay [4], this molecule showed a Ka of 6.41e+09 M⁻¹, a Kd of 0.156 nM, an off-rate constant (koff) of 0.000186 s⁻¹ and a kon of 1.19e+06 M⁻¹ s⁻¹.

B9: 5E5 scFv-Fc (Fc fusion)
VH: QLQLVESGGGLVQPGGSLRLSCAASGFTFGTYSMRWVRQVPRKALEWVSSISTDGGGTAYRDSVKGRFTISRDNAKNTLYLQMNNLKPEDTAIYYCVIAGYSDWGQGTQVTVSS
VL: ATMLTQSPGSLSVVPGESASISCKTSQGLVHSDGKTYFYWFLQKPGQSPQQLIYQVSNRASGVPDRFTGSGSGTDFTLKISGVKAEDAGVYYCAQGTYYPHTFGSGTRLEIK
notes: scFv-Fc format
Regarding B9, the “attenuation of the ability of ApoC3 to inhibit VLDL uptake by HepG2 cells” value in assay [1] was around 100%. Moreover, in assay [4], the Ka worked out at 5.94e+08 M⁻¹; the affinity, expressed as Kd, was 1.68 nM; the koff was found to be 0.000437 s⁻¹; the kon is 260000 M⁻¹ s⁻¹.

B10: 8A4 scFv-Fc (Fc fusion)
VH: QVQLVESGGGLVQPGGSLKVSCTASGFTFNNYAMRWVRQAEGKGLEWVSSIDSGGDRTKYGDSVKGRFSISRDNAKNTVYLQMDALKPEDTGVYYCVSQGYIFWGQGAQVTVSS
VL: ATMLTQSPGSLSVVPGESASISCKASQSLVHSDGKTYLYWLLQKPGQRPQLLIYQVSNHESGVPDRFTGSGSGTDYTLKISGVKAEDAGVYYCAQATYYPLTFGQGTKVELK
notes: scFv-Fc format
Regarding B10, the “attenuation of the ability of ApoC3 to inhibit VLDL uptake by HepG2 cells” value in assay [1] was around 40%. Moreover, in assay [4], the Ka was determined as 4.27e+09 M⁻¹, binding was put at a Kd of 0.234 nM, the koff was determined as 7.02e-05 s⁻¹ and the kon came out at 300000 M⁻¹ s⁻¹.

B11: 5A7 IgG1 (antibody, V domains shown)
VH: EVQVQESGPGLVKPSQTLSLTCTVSGASITNRRYAWTWIRQPPGKGLEWMGVIVYDGNTHVSPSLRSRTSISRDTSKNQFSLQLSSLTPEDTAVYYCARVLLLRDPLSLDYWGQGTQVTVSS
VL: SSALTQPPSMSGTLGKTLTISCAGTSSDIGAYNFVSWYQQLPGTAPKLLIYDIDKRASGIPDRFSGSKSGNTASLSISGLQSEDEADYYCAAYGSRDNVVFGGGTHLTVL
notes: IgG1 format
With B11, the binding result in assay [2] is given as “binds”.

The term Kd denotes the equilibrium constant for the complex coming apart. Usually koff stands for the rate constant with which the complex falls apart. A word on the kon: it is a measure of how fast the partners come together.

(Values after US20190241648A1 (STATEN BIOTECHNOLOGY B V, published 2019).)
